Experimental data taken from US20160264649A1.

Legend:
Experiment in all cases: cell-based or functional assay
[1] = biological target: HIV-1 MGRM-G-017 Env (HIV-1)
[2] = biological target: HIV-1 LAVIC_18 Env on pseudovirus (HIV-1)
[3] = biological target: HIV-1 MGRM-AE-008 Env (HIV-1)
[4] = biological target: HIV-1 MGRM-G-024 Env (HIV-1)
[5] = biological target: HIV-1 MGRM-Chronic-B-002 Env on pseudovirus (HIV-1)
[6] = biological target: HIV-1 MGRM-C-023 Env on pseudovirus (HIV-1)
[7] = biological target: HIV-1 MGRM-Chronic-B-024 Env on pseudovirus (HIV-1)
[8] = biological target: HIV-1 PVO.4 (Acute) Env on pseudovirus (HIV-1)
[9] = biological target: HIV-1 MGRM-C-022 Env on pseudovirus (HIV-1)
[10] = biological target: HIV-1 MGRM-AG-002 Env (HIV-1)
[11] = biological target: HIV-1 MGRM-D-028 Env (HIV-1)
[12] = biological target: HIV-1 JRCSF Env on pseudovirus (HIV-1) (UniProt P20871)
[13] = biological target: HIV-1 MGRM-AG-005 Env (HIV-1)
[14] = biological target: HIV-1 MGRM-D-005 Env (HIV-1)
[15] = biological target: HIV-1 93TH305 Env on pseudovirus (HIV-1)
[16] = biological target: HIV-1 JRCSF Env (HIV-1) (UniProt P20871)
[17] = biological target: HIV-1 MGRM-Chronic-B-017 Env on pseudovirus (HIV-1)
[18] = biological target: HIV-1 MGRM-F1-020 Env (HIV-1)
[19] = biological target: HIV-1 94UG103 Env (HIV-1)
[20] = biological target: HIV-1 MGRM-A-014 Env (HIV-1)
[21] = biological target: HIV-1 92UG031 Env (HIV-1)
[22] = biological target: HIV-1 92RW024 Env (HIV-1)
[23] = biological target: HIV-1 MGRM-A-009 Env (HIV-1)
[24] = biological target: HIV-1 92RW026 Env (HIV-1)
[25] = biological target: HIV-1 MGRM-A-007 Env (HIV-1)
[26] = biological target: HIV-1 93RW029 Env (HIV-1)
[27] = biological target: HIV-1 MGRM-A-003 Env (HIV-1)
[28] = biological target: HIV-1 MGRM-A-012 Env (HIV-1)
[29] = biological target: HIV-1 VLGCA1 Env (HIV-1)
[30] = biological target: HIV-1 92RW020 Env (HIV-1)
[31] = biological target: HIV-1 94KE105 Env (HIV-1)
[32] = biological target: HIV-1 92RW009 Env (HIV-1)
[33] = biological target: HIV-1 MGRM-A-013 Env (HIV-1)
[34] = biological target: HIV-1 92RW021 Env (HIV-1)
[35] = biological target: HIV-1 92RW008 Env (HIV-1)

Substance: 1496_C09 (PG9) (TCN-109) (antibody)
- IC50 (µg/ml), pseudovirus neutralization [1]: 0.03 µg/mL
- IC50 [2]: 0.1 µg/mL
- IC50 (µg/ml), pseudovirus neutralization [3]: 10.6 µg/mL
- IC50 (µg/ml), pseudovirus neutralization [4]: 0.07 µg/mL
- IC50 [5]: 1.41 µg/mL
- IC50 [6]: 0.51 µg/mL
- IC50 [7]: 0.18 µg/mL
- IC50 [8]: 4.01 µg/mL
- IC50 [9]: 0.19 µg/mL
- IC50 (µg/ml), pseudovirus neutralization [10]: 0.04 µg/mL
- IC50 (µg/ml), pseudovirus neutralization [11]: 4.39 µg/mL
- IC50 [12]: 0.003 µg/mL
- IC50 (µg/ml), pseudovirus neutralization [13]: 29.7 µg/mL
- IC50 (µg/ml), pseudovirus neutralization [14]: 0.59 µg/mL
- IC50 [15]: 2.08 µg/mL
- neutralization IC50 [16]: < 0.0025 µg/mL
- neutralization IC90 [16]: < 0.0025 µg/mL
- IC50 [17]: 0.32 µg/mL
- IC50 (pseudovirus neutralization) [18]: 4.55 µg/mL
- neutralization IC50 [19]: 0.24 µg/mL
- neutralization IC50 [20]: 0.62 µg/mL
- neutralization IC50 [21]: 3.08 µg/mL
- neutralization IC50 [22]: 0.18 µg/mL
- neutralization IC50 [23]: 0.03 µg/mL
- neutralization IC50 [24]: 0.27 µg/mL
- neutralization IC50 [25]: 0.37 µg/mL
- neutralization IC50 [26]: 1.19 µg/mL
- neutralization IC50 [27]: 0.65 µg/mL
- neutralization IC50 [28]: 11.2 µg/mL
- neutralization IC50 [29]: 0.07 µg/mL
- neutralization IC50 [30]: 0.08 µg/mL
- neutralization IC50 [31]: 29.6 µg/mL
- neutralization IC50 [32]: 0.03 µg/mL
- neutralization IC50 [33]: 0.16 µg/mL
- neutralization IC50 [34]: 0.05 µg/mL
- neutralization IC50 [35]: 0.01 µg/mL
